Results from publication PMC10950269.

Biological target: Recombinant truncated NA protein from the A/Perth/16/2009 H3N2 strain of influenza virus (influenza A virus A/Perth/16/2009 (H3N2))
Experiment: SEC

Recombinant truncated NA protein from the A/Perth/16/2009 H3N2 strain of influenza virus (enzyme)
stoichiometry N: 4
